# Results published in patent publication US20200399382A1 (ARGENX, published 2020).
# Numbering of substitutions follows the chain as printed.
# T1: human IL-5 (human, UniProt P05113 20-134)
# T1 sequence (looked up): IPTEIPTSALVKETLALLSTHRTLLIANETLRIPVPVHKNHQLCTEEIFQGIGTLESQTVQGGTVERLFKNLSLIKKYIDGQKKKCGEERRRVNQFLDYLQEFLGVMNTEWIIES
# T2: human IL-4Rα on the cells of the hIL-4 proliferation assay (human, UniProt P24394 26-825)
# T2 sequence (looked up): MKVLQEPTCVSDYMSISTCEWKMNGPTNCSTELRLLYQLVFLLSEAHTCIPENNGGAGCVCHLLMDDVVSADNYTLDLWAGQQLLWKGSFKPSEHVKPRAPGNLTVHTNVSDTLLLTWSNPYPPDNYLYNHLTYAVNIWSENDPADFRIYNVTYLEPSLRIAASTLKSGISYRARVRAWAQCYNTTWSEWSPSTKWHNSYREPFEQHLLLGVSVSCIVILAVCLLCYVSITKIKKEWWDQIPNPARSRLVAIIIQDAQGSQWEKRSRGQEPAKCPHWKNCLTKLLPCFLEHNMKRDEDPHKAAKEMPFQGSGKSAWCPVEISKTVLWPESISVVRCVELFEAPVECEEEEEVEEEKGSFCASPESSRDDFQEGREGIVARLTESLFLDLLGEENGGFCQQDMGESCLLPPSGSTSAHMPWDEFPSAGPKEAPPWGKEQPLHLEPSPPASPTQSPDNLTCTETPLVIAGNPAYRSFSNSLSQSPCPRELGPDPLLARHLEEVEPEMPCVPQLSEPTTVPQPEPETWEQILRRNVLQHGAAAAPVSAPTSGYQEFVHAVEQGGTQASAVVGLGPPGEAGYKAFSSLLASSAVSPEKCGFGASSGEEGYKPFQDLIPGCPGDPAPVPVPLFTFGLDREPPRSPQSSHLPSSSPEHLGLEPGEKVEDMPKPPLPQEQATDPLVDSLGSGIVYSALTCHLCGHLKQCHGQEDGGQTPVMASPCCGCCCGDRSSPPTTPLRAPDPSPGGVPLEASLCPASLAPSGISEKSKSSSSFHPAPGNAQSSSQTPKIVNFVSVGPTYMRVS
# T3: mouse IL-5 (mouse, UniProt P04401 21-133)
# T3 sequence (looked up): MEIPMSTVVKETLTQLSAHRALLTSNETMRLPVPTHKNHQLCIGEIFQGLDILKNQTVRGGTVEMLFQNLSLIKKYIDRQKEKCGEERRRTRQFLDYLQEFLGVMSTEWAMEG
# T4: human IL-4Rα (SPR target) (human, UniProt P24394 26-232, limits assumed)
# T4 construct: also called recombinant human IL-4Rα-Fc
# T4 sequence (looked up): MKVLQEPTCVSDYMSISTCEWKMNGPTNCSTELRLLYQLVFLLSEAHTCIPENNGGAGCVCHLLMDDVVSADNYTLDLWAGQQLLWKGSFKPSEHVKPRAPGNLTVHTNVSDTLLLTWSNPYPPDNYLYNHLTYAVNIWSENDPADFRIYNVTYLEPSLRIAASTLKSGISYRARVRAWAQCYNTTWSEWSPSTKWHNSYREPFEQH
# T5: cynomolgus recombinant IL-4Rα (cynomolgus (table head: cyno/rhesus), UniProt A0A2K5V556 26-232)
# T5 construct: Bought reagent; also called cyno/rhesus IL-4Rα; cyno IL-4Rα
# T5 sequence: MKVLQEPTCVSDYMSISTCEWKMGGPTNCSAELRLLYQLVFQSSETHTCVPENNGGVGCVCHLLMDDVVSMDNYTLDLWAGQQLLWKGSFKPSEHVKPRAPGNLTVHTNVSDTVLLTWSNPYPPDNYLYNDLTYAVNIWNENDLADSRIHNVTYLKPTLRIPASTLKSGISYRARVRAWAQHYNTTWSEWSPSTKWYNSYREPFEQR
# B1: h5MP90E7 human IL-5 mAb (antibody, V domains shown)
# VH: EVQLVESGGGLVQPGGSLRLSCAASGFAFSSSFMSWVRQAPGKGLEWVSTINGNGGTYYADSMKGRFTISRDNVKSTVTLQMNSLKPEDTAVYYCAADWISGGYYFPALGYWGQGTQVTVSS
# VL: SYELTQSPSVSVALRQTAKITCGGNNIGSKSAQWYQQKPGQAPVLVIYADSRRPSGIPERFSGSNSGNTATLTISGAQAEDEADYYCQVWDVSTNAAVFGGGTHLSVL
# B2: h5MP90G7 human IL-5 mAb (antibody, V domains shown)
# VH: B1 VH
# VL: B1 VL with S29R, V92S, T94A, S106T
# B3: h5MP90A9 human IL-5 mAb (antibody, V domains shown)
# VH: B1 VH
# VL: B1 VL with V10L, I20M, N26K, S62A, S66A, V92I, T94A, S106T
# B4: h5MP26H7 human IL-5 mAb (antibody, V domains shown)
# VH: B1 VH
# VL: SYELTQSPSVSVAQTQTAKITCGGDNIGSKSVQWYQQKPGQAPVLAIYADTRRPSGIPERFSGSNSGNTATLTITGAQAEDEADYYCQVWDTSTNVAVFGGGTRLTIL
# B5: h5MP90D9 human IL-5 mAb (antibody, V domains shown)
# VH: B1 VH
# VL: B1 VL with K30L, A32T, S51N, P58H, S75G, V92N, T94A, A97L, S106T
# B6: h5MP90C8 human IL-5 mAb (antibody, V domains shown)
# VH: B1 VH
# VL: B1 VL with N25D, K38S, S51A, R52S, Q78R, V92T, S106T
# B7: h4R3B2 human IL-4Rα mAb (antibody, V domains shown)
# VH: QLQLVESGGGLVQPGGSLRLSCAASGFTFSSYDMTWVRQAPGKGLEWVSAINSGGGSTNYADSVKGRVTISRDNAKNTLYLQMNSLKPEDTAVYFCARALRTVVHDRRLFYIDSWGQGTQVTVSS
# VL: SYELTQSPSVSVALRQTAKITCGGNNIGSKSAQWYQQKPGQAPVLVIYADSRRPSGIPERFSGSNSGNTATLTVSGAQAEDEADYYCQVWDTSAVVFGGGTRLTVL
# notes: also called h4RMP3B2; 4RMP3B2
# B8: h4R3D6 human IL-4Rα mAb (antibody, V domains shown)
# VH: QVQLQESGGGLVQPGGSLRLSCAASGFTFSSYSLTWVRQAPGKGLEWVSTIKARGGTTLYADSVKDRFTISRDNAKNTLYLLMNSLKPEDTAVYYCAKPLYNNFAGDFGSWGQGTTVTVSS
# VL: DIQMTQSPSSLSASLGDRVTITCQASQSISSYLAWYQQKPGQAPKLLIYGGSRLQTGVPSRFSGSGSGTSFTLTISGLETEDLATYYCLQDYSWPLTFGQGTKVELK
# notes: also called 4RMP3D6
# B9: h4R5D1 human IL-4Rα mAb (antibody, V domains shown)
# VH: QLQLVESGGGLVQPGGSLRLSCAASGFTFSSYIMSWVRQAPGKGLEWVSGISSGGGITAYADSVKGRFTISRDNAKNTLYLQMNSLKPDDTAVYYCVAGLLRVEGYWGQGTQVTVSS
# VL: QTVVTQEPSLSVSPGGTVTLTCGLSSGSVTSSNYPGWYQQTPGQAPRSLIYATASRHSGVPSRYSGSISGNKATLTITGAEPEDEADYYCALHKGTYVFGGGTKLTVL
# notes: also called h4RMP5D1; 4RMP5D1
# B10: 95G7hIgG1 (IL-5 antibody 5MP95G7 as human IgG1) (antibody, V domains shown)
# VH: ELQVVESGGGLVQPGGSLRLSCAASGFTFSSYGMSWVRQAPGKGLEWVSTISRGGDSTSYADSVKGRFTISKDNAKNTLYLQMNSLEPEDTAVYYCANLGRLGFGRGQGTQVTVSS
# VL: SYELTQPPSVSGSPGKTLTISCAGTSSDIGDWNYVSWFQQLPGTAPKLLISEVNKRASGIPDRFSGSKSGNTASLSISGLQSEDEADYYCTSYRSGNNWVFGGGTHLTVL
# B11: 3D6wt Fab (parental 4RMP3D6 as Fab) (Fab, V domains shown)
# VH: B8 VH
# VL: B8 VL
# notes: also called h4R3D6
# B12: 153A11 Fab (variant of 4RMP3D6) (Fab, V domains shown)
# VH: B8 VH with L82Q, N102S, F104L
# VL: B8 VL with P40S, D91V, V104L, L106I
# notes: Fab from periplasmic extract, with CH1 and CK constant domains; also called VH153A11
# B13: 150A09 Fab (variant of 4RMP3D6) (Fab, V domains shown)
# VH: B8 VH with A97V, N102S
# VL: B8 VL with K45R, L89Q, V104L, L106I
# notes: Fab from periplasmic extract, with CH1 and CK constant domains; also called VH150A09
# B14: 153E11 Fab (variant of 4RMP3D6) (Fab, V domains shown)
# VH: B8 VH with D107H
# VL: B8 VL with L89Q, V104L, L106I
# notes: Fab from periplasmic extract, with CH1 and CK constant domains; also called VH153E11
# B15: 152B10 Fab (variant of 4RMP3D6) (Fab, V domains shown)
# VH: B8 VH with M83V, F104L
# VL: B8 VL with T56A, S76G, L89Q, V104L, L106I
# notes: Fab from periplasmic extract, with CH1 and CK constant domains; also called VH152B10
# B16: 152A07 Fab (variant of 4RMP3D6) (Fab, V domains shown)
# VH: B8 VH with N102S, F104L, F108L
# VL: B8 VL with V104L, L106I
# notes: also called VH152A07
# Target: T1, human IL-5
# Assay: cell-based or functional assay
row,"IC50 (pM), proliferation assay with hIL-5 (0.25 ng/mL) [pM]",Binder
1,8.84,B1
2,1.61,B2
3,4.99,B3
4,37.5,B4
5,6.84,B5
6,6.93,B6

# Target: T2, human IL-4Rα on the cells of the hIL-4 …
# Assay: cell-based or functional assay
row,"IC50 (nM), proliferation assay with hIL-4 (1.5 ng/mL) [nM]",Binder
1,0.4,B7
2,0.6,B8
3,0.2,B9

# Target: T3, mouse IL-5
# Assay: cell-based or functional assay
row,"EC50 (nM), inhibition of mIL-5-induced (0.25 ng/mL) proliferation of TF-1 cells [nM]",Binder
1,1.86,B10

# Target: T1, human IL-5
# Assay: SPR as described in Example 2
row,Kd [nM],Binder
1,0.129,B1
2,0.113,B2
3,0.0835,B3
4,0.0749,B4
5,0.0264,B5
6,0.133,B6

# Target: T4, human IL-4Rα (SPR target)
# Assay: SPR as described in Example 2
row,Kd [nM],Binder
1,0.0818,B7
2,0.0551,B8
3,0.0442,B9

# Target: T5, cynomolgus recombinant IL-4Rα
# Assay: SPR (Biacore 3000), periplasmic Fab over CM5 chip coated with cyno IL-4Rα
# Source text: (§1) After 3 rounds of selection, clones were selected (from round 2 and 3), and Fab was produced from the periplasmic extracts and tested by SPR.
R0 (binding),koff [s⁻¹],Binder
26,0.0017,B11
146,0.00033,B12
80,0.002,B13
78,0.0014,B14
170,0.0026,B15
94,0.0017,B16

# Target: T4, human IL-4Rα (SPR target)
# Assay: SPR (Biacore 3000), periplasmic Fab over CM5 chip coated with human IL-4Rα
# Source text: as §1
R0 (binding),koff [s⁻¹],Binder
204,0.00053,B11
68,0.002,B12
53,0.00084,B13
56,0.00043,B14
110,0.0012,B15
58,0.00069,B16
